Test [1] deals with T1, Hu N(A2-B2)A-avi-His (human, biotinylated at the avi tag (Example 2.2)).
T1 construct: also called hu N(A2-B2)A-avi-His B; CEACAM5-based antigen
T1 chain: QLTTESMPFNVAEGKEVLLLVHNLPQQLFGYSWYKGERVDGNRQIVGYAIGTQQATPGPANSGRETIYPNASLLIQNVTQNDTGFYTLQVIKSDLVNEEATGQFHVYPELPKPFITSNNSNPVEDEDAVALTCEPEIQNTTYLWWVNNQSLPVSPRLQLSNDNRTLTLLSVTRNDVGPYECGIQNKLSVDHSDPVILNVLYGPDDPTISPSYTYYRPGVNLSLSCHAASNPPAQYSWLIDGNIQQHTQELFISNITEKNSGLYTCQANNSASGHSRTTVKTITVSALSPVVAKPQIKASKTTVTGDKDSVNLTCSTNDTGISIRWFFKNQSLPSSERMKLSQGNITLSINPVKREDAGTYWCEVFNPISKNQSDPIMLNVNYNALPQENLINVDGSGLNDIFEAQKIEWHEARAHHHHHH
The experiment in a line: SPR, ProteOn XPR36, antigen on NLC chip, bispecific as analyte.

Test [2] deals with T2, human BCMA on IM-9 cells (human, UniProt Q02223 1-184).
T2 construct: also called B-cell maturation antigen
T2 sequence: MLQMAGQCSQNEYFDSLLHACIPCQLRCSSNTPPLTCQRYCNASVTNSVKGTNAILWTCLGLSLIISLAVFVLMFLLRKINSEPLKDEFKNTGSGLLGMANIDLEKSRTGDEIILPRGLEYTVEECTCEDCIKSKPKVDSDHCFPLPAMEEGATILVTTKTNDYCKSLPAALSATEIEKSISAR
In words: flow cytometry on IM-9 cells.

Test [3] has as its target T3, human CD28 on CHO cells (parental cell line CHO-k1 ATCC #CCL-61, modified to stably overexpress human CD28) (human, UniProt P10747 19-220).
T3 construct: also called hu CD28; CHO-hCD28
The experiment in a line: flow cytometry on CHO-hCD28 cells. A general note: In flow cytometry, cells or beads pass a laser one at a time.

Test [4] has as its target T4, human CEA (CEACAM5) on cells (MKN45 cells; MV3 cells engineered to express human CEACAM5) (human, UniProt P06731 35-685).
T4 sequence: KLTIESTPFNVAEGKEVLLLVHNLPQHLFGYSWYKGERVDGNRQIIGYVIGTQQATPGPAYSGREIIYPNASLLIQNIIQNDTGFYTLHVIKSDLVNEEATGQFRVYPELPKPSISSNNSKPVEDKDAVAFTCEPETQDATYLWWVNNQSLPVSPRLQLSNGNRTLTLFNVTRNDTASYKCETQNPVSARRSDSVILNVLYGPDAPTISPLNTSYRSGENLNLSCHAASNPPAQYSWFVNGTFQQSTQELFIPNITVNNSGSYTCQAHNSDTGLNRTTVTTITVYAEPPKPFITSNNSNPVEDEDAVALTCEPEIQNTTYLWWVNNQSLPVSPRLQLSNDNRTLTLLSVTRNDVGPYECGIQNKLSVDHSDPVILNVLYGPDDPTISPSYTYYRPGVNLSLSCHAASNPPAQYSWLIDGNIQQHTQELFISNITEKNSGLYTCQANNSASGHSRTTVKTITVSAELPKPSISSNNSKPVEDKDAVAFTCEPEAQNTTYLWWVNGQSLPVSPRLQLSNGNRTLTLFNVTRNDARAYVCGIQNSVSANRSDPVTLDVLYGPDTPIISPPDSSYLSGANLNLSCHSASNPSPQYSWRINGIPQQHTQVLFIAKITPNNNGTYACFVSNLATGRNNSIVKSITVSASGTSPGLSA
In words: flow cytometry on MV3 cells modified to express CEA.

Test [5] concerns the target T5, biotinylated huCD28-Fc (dimeric CD28-Fc construct with a monovalent biotinylated avi-tag) (human, UniProt P10747 19-152, biotinylated at the C-terminal avi tag).
T5 construct: not shown: hum IgG1 Fc fragment with hole and PG-LALA mutations; hum IgG1 Fc fragment with knob and PG-LALA mutations
The experiment in a line: SPR, ProteOn XPR36, huCD28-Fc immobilised, bispecific as analyte. In general terms: SPR reads the build-up and loss of mass on a sensor chip optically.

B1: CEA-CD28(SA) 1+1 format (Molecule M) (bispecific antibody, human IgG1, kappa, L234A L235A)
heavy 1: not shown
light 1: not shown
heavy 2: QAVLTQPASLSASPGASASLTCTLRRGINVGAYSIYWYQQKPGSPPQYLLRYKSDSDKQQGSGVSSRFSASKDASANAGILLISGLQSEDEADYYCMIWHSGASAVFGGGTKLTVLSSASTKGPSVFPLAPSSKSTSGGTAALGCLVKDYFPEPVTVSWNSGALTSGVHTFPAVLQSSGLYSLSSVVTVPSSSLGTQTYICNVNHKPSNTKVDKKVEPKSCDKTHTCPPCPAPEAAGGPSVFLFPPKPKDTLMISRTPEVTCVVVDVSHEDPEVKFNWYVDGVEVHNAKTKPREEQYNSTYRVVSVLTVLHQDWLNGKEYKCKVSNKALGAPIEKTISKAKGQPREPQVCTLPPSRDELTKNQVSLSCAVKGFYPSDIAVEWESNGQPENNYKTTPPVLDSDGSFFLVSKLTVDKSRWQQGNVFSCSVMHEALHNHYTQKSLSLSP
light 2: EVQLVESGGGLVQPGRSLRLSCAASGFTVSSYWMHWVRQAPGKGLEWVGFIRNKANGGTTEYAASVKGRFTISRDDSKNTLYLQMNSLRAEDTAVYYCARDRGLRFYFDYWGQGTTVTVSSASVAAPSVFIFPPSDEQLKSGTASVVCLLNNFYPREAKVQWKVDNALQSGNSQESVTEQDSKDSTYSLSSTLTLSKADYEKHKVYACEVTHQGLSSPVTKSFNRGEC
notes: huIgG1 PG-LALA CrossFab, knob-into-hole; also called P1AE3127; anti-CEA (Medi-565) / anti-CD28 (TGN1412)
A word on the Kd: it is the equilibrium constant for the complex coming apart. Turning to B1, the Kd in test [1] was 0.29 nM.

B2: anti-BCMA-CD28 (SA_Variant 15) 1+1 format (Molecule 16D) (bispecific antibody, human IgG1, kappa, L234A L235A)
heavy 1: not shown
light 1: QVQLVQSGAEVKKPGASVKVSCKASGYTFTSYYIHWVRQAPGQGLEWIGSIYPGNVQTNYNEKFKDRATLTVDTSISTAYMELSRLRSDDTAVYFCTRSHYGLDWNFDVWGQGTTVTVSSASVAAPSVFIFPPSDEQLKSGTASVVCLLNNFYPREAKVQWKVDNALQSGNSQESVTEQDSKDSTYSLSSTLTLSKADYEKHKVYACEVTHQGLSSPVTKSFNRGEC
heavy 2: EVQLLESGGGLVQPGGSLRLSCAASGFTFSSYAMNWVRQAPGKGLEWVSAITASGGSTYYADSVKGRFTISRDNSKNTLYLQMNSLRAEDTAVYYCARYWPMSLWGQGTLVTVSSASTKGPSVFPLAPSSKSTSGGTAALGCLVEDYFPEPVTVSWNSGALTSGVHTFPAVLQSSGLYSLSSVVTVPSSSLGTQTYICNVNHKPSNTKVDEKVEPKSCDKTHTCPPCPAPEAAGGPSVFLFPPKPKDTLMISRTPEVTCVVVDVSHEDPEVKFNWYVDGVEVHNAKTKPREEQYNSTYRVVSVLTVLHQDWLNGKEYKCKVSNKALGAPIEKTISKAKGQPREPQVCTLPPSRDELTKNQVSLSCAVKGFYPSDIAVEWESNGQPENNYKTTPPVLDSDGSFFLVSKLTVDKSRWQQGNVFSCSVMHEALHNHYTQKSLSLSP
light 2: EIVLTQSPGTLSLSPGERATLSCRASQSVSAYYLAWYQQKPGQAPRLLMYDASIRATGIPDRFSGSGSGTDFTLTISRLEPEDFAVYYCQQYERWPLTFGQGTKVEIKRTVAAPSVFIFPPSDRKLKSGTASVVCLLNNFYPREAKVQWKVDNALQSGNSQESVTEQDSKDSTYSLSSTLTLSKADYEKHKVYACEVTHQGLSSPVTKSFNRGEC
notes: huIgG1 PG-LALA CrossFab; also called P1AE9053
One may read the EC50 as the concentration needed to bring the measured effect to its halfway point. As for B2, the EC50 in test [2] was 3.96 nM; in test [3], 9.9 nM.

B3: CEA (A5H1EL1D)-CD28 (SA_Variant 15) 1+1 format (Molecule 11C) (bispecific antibody, human IgG1, kappa, L234A L235A)
heavy 1: EIVLTQSPATLSLSPGERATLSCRASSSVTYIHWYQQKPGQAPRSWIYATSNLASGIPARFSGSGSGTDFTLTISSLEPEDFAVYYCQHWSSKPPTFGQGTKLEIKSSASTKGPSVFPLAPSSKSTSGGTAALGCLVKDYFPEPVTVSWNSGALTSGVHTFPAVLQSSGLYSLSSVVTVPSSSLGTQTYICNVNHKPSNTKVDKKVEPKSCDKTHTCPPCPAPEAAGGPSVFLFPPKPKDTLMISRTPEVTCVVVDVSHEDPEVKFNWYVDGVEVHNAKTKPREEQYNSTYRVVSVLTVLHQDWLNGKEYKCKVSNKALGAPIEKTISKAKGQPREPQVCTLPPSRDELTKNQVSLSCAVKGFYPSDIAVEWESNGQPENNYKTTPPVLDSDGSFFLVSKLTVDKSRWQQGNVFSCSVMHEALHNHYTQKSLSLSP
light 1: EVQLLESGGGLVQPGGSLRLSCAASGFTFTDYYMNWVRQAPGKGLEWLGFIGNKANAYTTEYSASVKGRFTISRDKSKNTLYLQMNSLRAEDTATYYCTRDRGLRFYFDYWGQGTTVTVSSASVAAPSVFIFPPSDEQLKSGTASVVCLLNNFYPREAKVQWKVDNALQSGNSQESVTEQDSKDSTYSLSSTLTLSKADYEKHKVYACEVTHQGLSSPVTKSFNRGEC
heavy 2: not shown
light 2: not shown
notes: huIgG1 PG-LALA CrossFab; also called P1AE4775
The term koff denotes the rate constant with which the complex falls apart. The term kon denotes the second-order rate constant of association. In test [4], B3 came in with an EC50 of 20.4 nM. Moreover, in test [5], the Kd worked out at 10 nM, the koff amounted to 0.00264 s⁻¹ and the kon is 259000 M⁻¹ s⁻¹.
